Reference: PMC10276003, “Regulation of microRNA expression by the adaptor protein GRB2” (Scientific Reports, 2023)
Each block holds one binder with its values, some of them ahead of it.

Key:
Conditions in all cases: both partners purified
[1] = biological target: T1, AGO2 pre-incubated with GRB2 (GRB2-AGO2 complex) (human | , UniProt Q9UKV8 1-859; P62993 1-217, labelled with Atto 488 NHS ester); assay: MST; 2.29 to 75,000 nM unlabelled DICER1^CT with 100 nM Atto 488-labelled AGO2 pre-incubated with 25 uM GRB2; 20 mM HEPES, 150 mM NaCl, 1 mM TCEP pH 7.5
T1 construct: Argonaute 2 (AGO2), human; as m20; as m12; The complex was not isolated: labelled AGO2 (100 nM) stood with an excess of GRB2; source: E. coli BL21(DE3), both purified; AGO2 incubated with 25 or 50 uM GRB2 before the MST

[2] = biological target: T1, AGO2 pre-incubated with GRB2 (GRB2-AGO2 …); assay: MST; 2.29 to 75,000 nM unlabelled DICER1^CT with 100 nM Atto 488-labelled AGO2 pre-incubated with 50 uM GRB2; 20 mM HEPES, 150 mM NaCl, 1 mM TCEP pH 7.5
[3] = biological target: T2, AGO2 (purified as GST-AGO2, GST cleaved) (human, UniProt Q9UKV8 1-859, labelled with Atto 488 NHS ester); assay: MST; 2.29 to 75,000 nM unlabelled DICER1^CT with 100 nM Atto 488-labelled AGO2, no GRB2; 20 mM HEPES, 150 mM NaCl, 1 mM TCEP pH 7.5
T2 construct: Argonaute 2 (AGO2), human; source: E. coli BL21(DE3), purified (RNase, glutathione superflow resin, Superdex 75; GST cleaved with thrombin)
T2 sequence (Q9UKV8 whole entry): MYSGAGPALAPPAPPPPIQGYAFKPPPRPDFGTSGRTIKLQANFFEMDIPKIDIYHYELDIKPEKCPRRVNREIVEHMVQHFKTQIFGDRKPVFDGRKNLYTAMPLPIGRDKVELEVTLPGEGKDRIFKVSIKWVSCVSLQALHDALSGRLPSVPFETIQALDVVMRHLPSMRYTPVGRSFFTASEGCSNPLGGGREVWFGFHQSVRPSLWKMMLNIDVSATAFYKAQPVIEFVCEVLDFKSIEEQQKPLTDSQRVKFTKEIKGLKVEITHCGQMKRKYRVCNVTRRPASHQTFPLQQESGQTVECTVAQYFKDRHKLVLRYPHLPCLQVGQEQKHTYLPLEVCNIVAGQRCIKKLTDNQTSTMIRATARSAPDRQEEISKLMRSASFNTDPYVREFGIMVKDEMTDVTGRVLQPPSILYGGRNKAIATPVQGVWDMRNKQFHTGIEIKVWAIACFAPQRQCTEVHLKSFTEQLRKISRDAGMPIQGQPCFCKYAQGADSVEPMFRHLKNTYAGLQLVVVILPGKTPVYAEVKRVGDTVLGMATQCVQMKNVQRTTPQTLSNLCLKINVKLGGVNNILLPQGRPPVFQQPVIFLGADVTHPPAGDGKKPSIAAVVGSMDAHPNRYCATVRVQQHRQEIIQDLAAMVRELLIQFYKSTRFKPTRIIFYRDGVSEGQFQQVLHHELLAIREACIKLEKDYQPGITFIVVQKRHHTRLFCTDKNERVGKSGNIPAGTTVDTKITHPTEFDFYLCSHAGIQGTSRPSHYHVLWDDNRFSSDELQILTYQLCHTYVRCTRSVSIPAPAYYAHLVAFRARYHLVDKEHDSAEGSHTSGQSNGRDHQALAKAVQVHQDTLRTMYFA

His-tagged GRB2 [4] = biological target: T3, His-tagged GRB2 (UniProt P62993 1-217); assay: ITC; 1.2 mM peptide titrated into 80 uM His-tagged GRB2; 25 C; 20 mM Tris-HCl pH 8, 150 mM NaCl, 1 mM beta-mercaptoethanol
T3 construct: For the MST with DICER1^CT and AGO2 the text writes only GRB2; also called His-GRB2

His-tagged GRB2 [5] = biological target: T3, His-tagged GRB2; assay: ITC; 500 uM MBP-tagged AGO2 domain titrated into 20 uM His-tagged GRB2; 25 C; 20 mM Tris-HCl pH 8, 150 mM NaCl, 10% glycerol, 1 mM beta-mercaptoethanol; one-site model with n fixed at 1

- Kd [1]: 7.9 ± 1.3 µM
- Kd [2]: 4.6 ± 0.6 µM
- Kd [3]: 17.6 ± 1.7 µM
B1: C-terminal domain of DICER1 (DICER1^CT, residues 1276-1922) (domain or fragment, UniProt Q9UPY3 1276-1922, looked up)
chain: DSEQSPSIGYSSRTLGPNPGLILQALTLSNASDGFNLERLEMLGDSFLKHAITTYLFCTYPDAHEGRLSYMRSKKVSNCNLYRLGKKKGLPSRMVVSIFDPPVNWLPPGYVVNQDKSNTDKWEKDEMTKDCMLANGKLDEDYEEEDEEEESLMWRAPKEEADYEDDFLEYDQEHIRFIDNMLMGSGAFVKKISLSPFSTTDSAYEWKMPKKSSLGSMPFSSDFEDFDYSSWDAMCYLDPSKAVEEDDFVVGFWNPSEENCGVDTGKQSISYDLHTEQCIADKSIADCVEALLGCYLTSCGERAAQLFLCSLGLKVLPVIKRTDREKALCPTRENFNSQQKNLSVSCAAASVASSRSSVLKDSEYGCLKIPPRCMFDHPDADKTLNHLISGFENFEKKINYRFKNKAYLLQAFTHASYHYNTITDCYQRLEFLGDAILDYLITKHLYEDPRQHSPGVLTDLRSALVNNTIFASLAVKYDYHKYFKAVSPELFHVIDDFVQFQLEKNEMQGMDSELRRSEEDEEKEEDIEVPKAMGDIFESLAGAIYMDSGMSLETVWQVYYPMMRPLIEKFSANVPRSPVRELLEMEPETAKFSPAERTYDGKVRVTVEVVGKGKFKGVGRSYRIAKSAAARRALRSLKANQPQVPNS
modifications: labelled with Atto 488 NHS ester in the MST with GRB2; unlabelled in the MST with AGO2
notes: DICER1, residues 1276-1922, with the RNase III domains; also called DICER1 C-terminal region

- Kd (His-tagged GRB2 [4]): 4.27 ± 1.17 µM
B2: PRM-containing peptide from the AGO2 PAZ domain (residues 317-333) (peptide)
peptide: KLVLRYPHLPCLQVGQE
notes: Argonaute 2 (AGO2), human, PAZ domain, residues 317-333; also called peptide spanning the proline-rich motif 323PHLP326

- Kd (His-tagged GRB2 [5]): 0.585 ± 0.061 µM
- stoichiometry N (His-tagged GRB2 [5]): 1
B3: MBP-tagged AGO2 PAZ domain (residues 235-348) (domain or fragment)
chain: not shown
notes: Argonaute 2 (AGO2), human, PAZ domain, residues 235-348, in pMAL-c5x; The methods say that RNA was left in the PAZ preparation; also called MBP-PAZ; PAZ WT; source: E. coli BL21(DE3), purified (MBPTrap HP, SEC); not shown: MBP, N-terminal, kept
